{
  "source": "paper PMC3099347",
  "about": "(Journal of molecular biology, 2011)",
  "biological_target": "the molecule itself",
  "assay": "SEC",
  "data": [
    {"protein": "Methanococcus jannaschii FKBP26 fragment 231-ΔIF (1-231Δ83-G-A-G-134) (domain or fragment) MVEKGKMVKISYDGYVDGKLFDTTNEELAKKEGIYNPAMIYGPVAIFAGEGQVLPGLDEAILEMDVGEEREVVLPPEKAFGKRGAGLAGKEVKYRIKIEEVVDDKKNIVKEIVKMYVPRLSDVKVTIRNGTVKIELPEFAPFIPNIQTAKMAIANEILKRLEDAEKVSFVETFERKKETKEENK", "values": [
      {"measurement": "stoichiometry N", "result": 2}
    ]},
    {"protein": "Methanococcus jannaschii FKBP26, construct 231 (full-length, residues 1-231) (natural protein, UniProt Q58235 1-231, looked up) MVEKGKMVKISYDGYVDGKLFDTTNEELAKKEGIYNPAMIYGPVAIFAGEGQVLPGLDEAILEMDVGEEREVVLPPEKAFGKRDPSKIKLIPLSEFTKRGIKPIKGLTITIDGIPGKIVSINSGRVLVDFNHELAGKEVKYRIKIEEVVDDKKNIVKEIVKMYVPRLSDVKVTIRNGTVKIELPEFAPFIPNIQTAKMAIANEILKRLEDAEKVSFVETFERKKETKEENK", "values": [
      {"measurement": "stoichiometry N", "result": 2}
    ]}
  ]
}
